Assay results: patent publication US20210300992A1

How the values were obtained:
[1] = molecular target: human leukemia inhibitory factor (LIF), soluble (human) (UniProt P15018); assay: yeast surface display, flow cytometry; Score column of the table of sorted gp130 CBM variants (the filing gives 100 pM and 1 nM human LIF for the gp130 binding scores)
[2] = molecular target: human leukemia inhibitory factor (LIF), soluble (human) (UniProt P15018); assay: yeast surface display, flow cytometry; score from summed fluorescence at 10 pM and 100 pM human LIF, normalized to wild-type and to expression
[3] = molecular target: human leukemia inhibitory factor (LIF), soluble (human) (UniProt P15018); assay: yeast surface display, flow cytometry; soluble human LIF titrated (0.001 to 100 nM), detected with a fluorescent antibody

Sequence of human leukemia inhibitory factor (LIF), soluble (human) (P15018 23-202 limits assumed): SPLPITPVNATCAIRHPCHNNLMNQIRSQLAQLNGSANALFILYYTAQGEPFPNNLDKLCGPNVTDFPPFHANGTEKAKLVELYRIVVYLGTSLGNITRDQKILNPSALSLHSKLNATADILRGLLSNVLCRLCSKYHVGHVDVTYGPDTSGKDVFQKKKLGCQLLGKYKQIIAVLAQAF

| Score (binding score) [1] | Score (normalized binding score) [2] | EC50 (read off the curve) [3] [nM] | Substance |
| --- | --- | --- | --- |
| 23.6 | – | – | ELRDSLE (receptor) |
| – | 7.71 | 0.4 | PDD (receptor) |
| 15.9 | – | – | ELDI (receptor) |

The next lines start with the substance.

| Substance | Score (binding score) [1] | Score (normalized binding score) [2] | EC50 (read off the curve) [3] [nM] |
| --- | --- | --- | --- |
| PRDSAID (receptor) | – | 15.8 | – |
| PVVIDN (receptor) | – | 13.9 | – |
